Source: patent US20090238821A1 (Eli Lilly, published 2009)

Key:
[1] = target: T1, β-amyloid peptide (1-42) conjugated to BSA (UniProt P05067 672-713, C-terminal Cys43 coupled to maleimide-activated bovine serum albumin); assay: competitive ELISA on Aβ1-42-BSA, competitor of biotinylated Mu266 (0.3 µg/ml), second set
T1 construct: domain: Aβ1-42; Coated on ELISA plates at 10 µg/mL; the carrier BSA is not written as a chain; also called Aβ1-42-BSA conjugate; Aβ1-42-Cys-BSA conjugate
Description: (§1) The Aβ₁₋₄₂-BSA conjugate was prepared by dissolving 7.5 mg of Aβ₁₋₄₂-Cys₄₃(C-terminal cysteine Aβ₁₋₄₂, AnaSpec) in 500 μL of dimethylsulfoxide, and then immediately adding 1,500 μL of distilled water. Two (2) milligrams of maleimide-activated bovine serum albumin (Pierce) was dissolved in 200 μL of distilled water. The two solutions were combined, thoroughly mixed, and allowed to stand at room temperature for two (2) hours. A gel chromatography column was used to separate unreacted peptide from Aβ₁₋₄₂-Cys-BSA conjugate.
(§2) After washing the wells with phosphate buffered saline (PBS) containing 0.1% Tween 20 (Washing Buffer) using an ELISA plate washer, the wells were blocked by adding 300 μL of SuperBlock reagent (Pierce) per well. After 30 minutes of blocking, the wells were washed Washing Buffer and excess liquid was removed.
(§3) As a background control, 100 μl of ELISA Buffer was added. The ELISA plate was incubated at room temperature for 90 min. After washing the wells with Washing Buffer, 100 μl of 1 μg/ml HRP-conjugated streptavidin (Cat # 21124, Pierce) was added to each well. […] Absorbance was read at 415 nm. The absorbances were plotted against the log of the competitor concentration, curves were fit to the data points (using Prism) and the IC50 was determined for each antibody using methods well-known in the art.

[2] = target: T1, β-amyloid peptide (1-42) conjugated to …; assay: competitive ELISA on Aβ1-42-BSA, competitor of biotinylated Mu266 (0.3 µg/ml), first set
Description: as §1, §2, §3

Amyloid-beta 1-42 = target: T2, Amyloid-beta 1-42 (UniProt P05067 672-713); assay: BIAcore, essentially as in Example 15
T2 construct: domain: Amyloid-beta 1-42; Numbers 1-42 count on the Aβ peptide, not on the APP entry; also called Aβ42; Aβ1-42
Description: Antibody affinity (KD=Kd/Ka) was determined using a BIAcore biosensor 2000 and data analyzed with BIAevaluation (v. 3.1) software. A capture antibody (rabbit anti-mouse) was coupled via free amine groups to carboxyl groups on flow cell 2 of a biosensor chip (CM5) using N-ethyl-N-dimethylaminopropyl carbodiimide and N-hydroxysuccinimide (EDC/NHS). A non-specific rabbit IgG was coupled to flow cell 1 as a background control. Monoclonal antibodies were captured to yield 300 resonance units (RU). […] To regenerate the chip, bound anti-Aβ antibody was eluted from the chip using a wash with glycine-HCl (pH 2). A control injection containing no amyloid-beta served as a control for baseline subtraction.

B1: humanized 266 antibody (antibody, human IgG1, kappa, V domains shown)
VH: EVQLVESGGGLVQPGGSLRLSCAASGFTFSRYSMSWVRQAPGKGLELVAQINSVGNSTYYPDTVKGRFTISRDNAKNTLYLQMNSLRAEDTAVYYCASGDYWGQGTLVTVSS
VL: DVVMTQSPLSLPVTLGQPASISCRSSQSLIYSDGNAYLHWFLQKPGQSPRLLIYKVSNRFSGVPDRFSGSGSGTDFTLKISRVEAEDVGVYYCSQSTHVPWTFGQGTKVEIKR
notes: Mature antibody expressed from pVk-Hu266 and pVg1-Hu266 in Sp2/0 cells (clone 1D9), purified on protein A; human kappa and gamma 1 constant regions; also called Hu266
IC50 [1]: 4 µg/mL
IC50 [2]: 7.5 µg/mL
Kd (Amyloid-beta 1-42): 4 pM
